Experimental data from US20230272035A1 (VYCELLIX, published 2023).

Target: T1, CD45 (receptor-type tyrosine-protein phosphatase C, PTPRC) (Homo sapiens, UniProt P08575 26-1306)
T1 construct: In the lysis assays CD45 is the endogenous protein on human PBMCs or NK92 effector cells; also called all isoforms of CD45
T1 sequence: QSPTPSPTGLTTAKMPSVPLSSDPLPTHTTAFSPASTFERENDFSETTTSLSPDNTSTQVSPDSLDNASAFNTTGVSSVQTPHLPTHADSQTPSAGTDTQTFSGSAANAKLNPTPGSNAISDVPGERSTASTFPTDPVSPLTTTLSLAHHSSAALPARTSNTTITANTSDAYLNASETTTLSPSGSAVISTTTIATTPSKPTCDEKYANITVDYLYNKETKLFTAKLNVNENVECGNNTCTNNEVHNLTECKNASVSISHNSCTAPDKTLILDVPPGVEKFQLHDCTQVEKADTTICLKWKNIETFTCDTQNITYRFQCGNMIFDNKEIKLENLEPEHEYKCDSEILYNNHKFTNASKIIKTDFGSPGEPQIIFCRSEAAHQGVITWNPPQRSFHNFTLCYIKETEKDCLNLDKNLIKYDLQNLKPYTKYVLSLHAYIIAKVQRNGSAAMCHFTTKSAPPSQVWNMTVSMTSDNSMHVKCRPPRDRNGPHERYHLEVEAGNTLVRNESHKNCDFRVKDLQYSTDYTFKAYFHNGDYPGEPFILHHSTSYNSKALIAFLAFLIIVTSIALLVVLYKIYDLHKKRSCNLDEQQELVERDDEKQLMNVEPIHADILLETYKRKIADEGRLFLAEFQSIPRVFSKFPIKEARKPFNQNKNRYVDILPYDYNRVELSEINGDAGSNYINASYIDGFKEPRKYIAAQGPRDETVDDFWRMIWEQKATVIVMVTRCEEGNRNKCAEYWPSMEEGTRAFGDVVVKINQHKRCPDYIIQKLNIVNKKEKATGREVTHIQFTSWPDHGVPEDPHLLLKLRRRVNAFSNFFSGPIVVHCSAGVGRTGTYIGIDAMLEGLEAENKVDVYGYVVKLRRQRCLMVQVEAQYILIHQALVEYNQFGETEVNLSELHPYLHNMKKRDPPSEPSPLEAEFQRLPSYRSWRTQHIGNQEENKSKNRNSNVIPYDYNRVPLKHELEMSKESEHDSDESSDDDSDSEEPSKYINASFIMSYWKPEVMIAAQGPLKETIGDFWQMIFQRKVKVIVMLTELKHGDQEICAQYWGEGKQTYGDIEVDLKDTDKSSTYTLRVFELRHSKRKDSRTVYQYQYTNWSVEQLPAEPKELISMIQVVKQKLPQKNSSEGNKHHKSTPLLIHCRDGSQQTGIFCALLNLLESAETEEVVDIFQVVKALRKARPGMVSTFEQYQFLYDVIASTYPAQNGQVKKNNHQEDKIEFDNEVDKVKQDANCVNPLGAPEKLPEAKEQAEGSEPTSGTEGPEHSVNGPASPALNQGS
Experiment: not described; same paragraph: immunoprecipitation studies reveal a physical interaction

Binder	binding result
HCMV (Merlin strain; HHV5) protein UL11 (other, also called ULll) CIPVVGKIGTNVTLNAVDVLPPRDQVRWSYGPGGQGYMLCIFTGTSTTTFNNTRFNFSCLSNYSLLLINVTTQYSTTYRTMTSLDHWLHQRHNHGSRWTLDTCYNLTVNENGTFPTTTTKKPTTTTRTTTTTTQRTTTTRTTTTAKKTTISTTHHKHPSPKKSTTPNSHVEHHVGFEATAAETPLQPSPQHQHLATHALWVLAVVIVIIIIIIFYFRIPQKLWLLWQHDKHGIVLIPQTDL	binds
a-CD45-sc (membrane-bound anti-CD45 single chain antibody with CD8a/CD28 stalk and CD34 transmembrane region) (scFv, The molecule was expressed on the surface of K562 target cells; also called anti-CD45-sc; ai-CD45-sc) scFv: QVQLVESGGGLVQPGGSLKLSCAASGFDFSRYWMSWVRQAPGKGLEWIGEINPTSSTINFTPSLKDKVFISRDNAKNTLYLQMSKVRSEDTALYYCARGNYYRYGDAMDYWGQGTSVTVSKISGGGGSGGGGSGGGGSGGGGSGGGGSSDIVLTQSPASLAVSLGQRATISCRASKSVSTSGYSYLHWYQQKPGQPPKLLIYLASNLESGVPARFSGSGSGTDFTLNIHPVEEEDAATYYCQHSRELPFTFGSGTKLEIKSSGSGSPTTTPAPRPPTPAPTIASQPLSLRPEACRPAAGGAVHTRGLDFAPRKIEVMYPPPYLDNEKSNGTIIHVKGKHLCPSPLFPGPSKPTLIALVTSGALLAVLGITGYFL	binds
